Laboratory results from patent US20220389097A1 (Genentech, published 2022).
Numbering of substitutions follows the chain as printed. Names and notes keep the numbering of the source.

B1: hPara.09.v2 Q100P/V104L (antibody, human IgG1, V domains shown)
VH: EVQLVESGGGLVQPGGSLKLSCATSGFPFSNVWLHWVRQASGKGPEWVAHIKAKSDNYATYYAESVKGRFTISRDDSKNTVYLQMNSLKTEDTAVYYCTDILEYWGQGTLVTVSS
VL: DVVMTQSPLSLPVTPGEPASISCRSSRSLLTSKGITSLYWYLQKPGQSPQLLIYRMSNLASGIPDRFSGSGSGTDFTLKISRVEAEDVGVYYCAQFLVYPYTFGPGTKLEIK
B2: h3.10C2.v1 hIgG1 N297G (antibody, V domains shown)
VH: EVQLVESGGGLVQPGGSLKLSCATSGFPFSNVWMHWVRQASGKGLEWIAHIKAKSDNYATYYAESVKGRFTISRDDSKTTIYLQMNSLKTEDTAVYYCTGLDYWGQGTTVTVSS
VL: B1 VL with I63V, P105Q, L109V
notes: Human IgG1 N297G; also called h3.10C2.v1.huIgG1.N297G
B3: 3.10C2-H6/3.10C2-L1 Fab (Fab, V domains shown)
VH: B2 VH with I48V, T79N
VL: DTVLTQSPLSLPVTPGEPASISCRSSKSLLGVRDITSLYWYLQKPGQSPQLLIYRMSNLASGVPDRFSGSGSETDFTLKISRVEAEDVGVYYCAQFLRYPYTFGQGTKVEIK
B4: 3.10C2 Fab (Fab, V domains shown)
VH: EVQLVETGGSLVQPGKSLKLTCATSGFPFSNVWMHWVRQSPEKQLEWIAHIKAKSDNYATYYAESVKGRFTISRDDSKTSIYLQMNSLKEDDTAIYYCTGLDYWGQGVMVTVSS
VL: B3 VL with S7A, P12S, P18S, Q47K, R82E, A85T, Q105P, V109L, I111L
notes: also called 3.10C2 (3.10C2); Rat3.10C2
B5: 3.10C2-H2/3.10C2-L1 Fab (Fab, V domains shown)
VH: B2 VH with I48V, A49G, T79N
VL: B3 VL
B6: 3.10C2-H7/3.10C2-L1 Fab (Fab, V domains shown)
VH: B2 VH with I48V, T79N, I81A
VL: B3 VL
B7: 3.10C2-H4/3.10C2-L1 Fab (Fab, V domains shown)
VH: B2 VH with T24A, A49G, T79N
VL: B3 VL
B8: Para.09 Fab with the 3.27H7 light chain (Fab, V domains shown)
VH: EVQLVETGGSLVQPGKSLRLTCATSGFPFSNVWLHWVRQSPEKHPEWVAHIKAKSDNYATYYAESVKGRFTISRDDSKSSVFLQMNSLKEEDTAIYYCTDILEYWGQGTLVTVSS
VL: DVVLTQAPLSVSVTPGESASISCRSSRSLLTSKGITSLYWYLQKPGMSPHLLIYRMSNLASGIPDRFSGSGSETDFTLKISEVEPEDVGVYYCAQFLVYPYTFGAGTKLELK
notes: Fab fragment; also called Para.09 (3.27H7); Para.09-L27H7
B9: h3.10C2.v1 Fab (Fab, V domains shown)
VH: B2 VH
VL: B1 VL with I63V, P105Q, L109V
notes: also called 3.10C2-H1/3.27H7-L6
B10: hPara.09.v2 Fab (Fab, V domains shown)
VH: B1 VH
VL: B1 VL with P105Q, L109V
notes: also called Para.09-H5/3.27H7-L6
B11: Para.09 Fab with the 3.18E5 light chain (Fab, V domains shown)
VH: B8 VH
VL: DTVLTQAPLSVSVTPGESASISCRSNKSLLGIRDITSLYWYLQKPGKSPQLLIYRMSNLASGVPDRFSGSGSETDFTLKISEVETEDVGVYYCAQFLRYPYTFGPGTKLELK
notes: also called Para.09 (3.18E5)
B12: Para.09 Fab with the 3.10C2 light chain (Fab, V domains shown)
VH: B8 VH
VL: B11 VL with V11L, N26S, I32V
notes: also called Para.09 (3.10C2)
B13: Para.09 Fab with the 3.50G1 light chain (Fab, V domains shown)
VH: B8 VH
VL: B11 VL with Y41F, K112Q
notes: also called Para.09 (3.50G1)
B14: 3.10C2 IgG (rat variable regions; captured by anti-CH1 or anti-human Fab chips) (antibody, V domains shown)
VH: B4 VH
VL: B11 VL with V11L, N26S, I32V
notes: also called parental 3.10C2 clone; 3.10C2 control

What follows are binders tested against T1, human TREM2 on cells (human, UniProt Q9NZC2 19-230) (assay: cell-based or functional assay).
T1 sequence: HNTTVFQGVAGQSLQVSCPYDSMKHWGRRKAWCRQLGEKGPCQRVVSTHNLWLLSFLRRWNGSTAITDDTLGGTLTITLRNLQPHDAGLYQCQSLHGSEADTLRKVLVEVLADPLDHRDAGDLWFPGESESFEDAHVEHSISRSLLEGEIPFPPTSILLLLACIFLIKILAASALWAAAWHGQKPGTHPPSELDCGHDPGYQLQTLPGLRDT

EC50, Jurkat NFAT luciferase reporter cells	IC50, TREM2 shedding inhibition in Jurkat-NFAT reporter cells (sTREM2 ELISA)	Binder
0.0232 µg/mL	0.114 µg/mL	B1
0.076 µg/mL	0.975 µg/mL	B2

The binders below were run against T2, human TREM2-Fc (human, UniProt Q9NZC2 19-174) (assay: SPR (Biacore T200), 37 C; TREM2-Fc on protein A chip, Fab in solution).
T2 construct: also called hTREM2; not shown: Fc part (captured by anti-human IgG1 Fc or protein A)
T2 sequence: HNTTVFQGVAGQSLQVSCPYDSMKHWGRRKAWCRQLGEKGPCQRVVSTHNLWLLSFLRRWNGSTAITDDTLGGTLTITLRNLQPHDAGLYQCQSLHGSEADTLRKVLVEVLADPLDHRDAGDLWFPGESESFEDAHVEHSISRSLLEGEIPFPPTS
Method: The humanized heavy chain variants were tested for affinity by combining the heavy chain variants with the 3.10C2-L1 light chain. These variants were expressed as Fab fragments, purified by protein A chromatography, and tested for affinity for TREM2-Fc coated on a protein A chip with a Biacore™ T200 apparatus.

koff	kon	Binder
0.0013 s⁻¹	210000 M⁻¹ s⁻¹	B3
0.00019 s⁻¹	720000 M⁻¹ s⁻¹	B4
0.0059 s⁻¹	520000 M⁻¹ s⁻¹	B5
0.018 s⁻¹	1.2e+06 M⁻¹ s⁻¹	B6
0.024 s⁻¹	1.2e+06 M⁻¹ s⁻¹	B7

Biological target: T1, human TREM2 on cells
Assay: cell-based or functional assay
Remark: another data set of the same source

EC50, average X04 plaque intensity, human iPSC-derived microglia plaque assay (FIG. 24C)	EC50, total Abeta plaque intensity, human iPSC-derived microglia plaque assay (FIG. 24B)	phospho-SYK/total SYK relative to anti-gD control, iPSC-derived microglia, 1 hour	phospho-SYK/total SYK relative to anti-gD control, iPSC-derived microglia, 4 hours	Binder	EC50, survival of iPSC-derived microglia (FIG. 23E)
40 nM	770 nM	2 fold	> 10 fold	B1	0.19 nM
11 nM	130 nM			B2	0.35 nM

The binders below were run against T2, human TREM2-Fc (assay: SPR (Biacore T200), 37 C; TREM2-Fc on protein A chip, soluble Fab).
Method: (§1) Affinity of h3.10C2.v1 (FIGS. 9A-B) for human and cynomolgus TREM2 was determined by SPR in a Biacore™ T200 apparatus in two formats, both at 37° C. In one format TREM2-Fc was immobilized on protein A chips and soluble anti-TREM2 Fab fragments used as ligands. In the second format, anti-TREM2 IgG was immobilized on anti-CH1 Biacore™ chips and used soluble monomeric TREM2 as ligand.

Kd	koff	kon	Binder
0.015 nM	3.5e-05 s⁻¹	2.3e+06 M⁻¹ s⁻¹	B8
0.19 nM	0.00018 s⁻¹	910000 M⁻¹ s⁻¹	B4
0.39 nM	0.00057 s⁻¹	1.5e+06 M⁻¹ s⁻¹	B9
0.021 nM	6.1e-05 s⁻¹	3e+06 M⁻¹ s⁻¹	B10

Each binder was assayed against T3, cynomolgus TREM2-Fc (cynomolgus monkey, UniProt A0A2K5UY34 49-204) in the same assay as above.
T3 construct: also called cyno TREM2; not shown: Fc part
T3 sequence: T2 sequence with A10E, W60R, L89F, F125V
Method: as §1

Kd	koff	kon	Binder
0.018 nM	4.1e-05 s⁻¹	2.3e+06 M⁻¹ s⁻¹	B8
0.22 nM	0.0002 s⁻¹	910000 M⁻¹ s⁻¹	B4
0.43 nM	0.00062 s⁻¹	1.4e+06 M⁻¹ s⁻¹	B9
0.022 nM	6.3e-05 s⁻¹	2.9e+06 M⁻¹ s⁻¹	B10

What follows are binders tested against T2, human TREM2-Fc (assay: SPR (Biacore T200), 37 C; TREM2-Fc on anti-human IgG1 Fc chip, Fab in solution).
Method: (§2) Briefly, clone variants were expressed as Fab fragments and purified by anti-CH1 affinity chromatography followed by size exclusion chromatography. TREM2-Fc antigens were immobilized on anti-human IgG1 Fc Biacore™ chips and soluble Para.09 variant and 3.10C2 clone Fab fragments were bound to immobilized TREM2 at 37° C.

Kd	koff	kon	Binder
0.0042 nM	2.7e-05 s⁻¹	6.3e+06 M⁻¹ s⁻¹	B8
0.005 nM	2.8e-05 s⁻¹	5.6e+06 M⁻¹ s⁻¹	B11
0.0038 nM	2.7e-05 s⁻¹	7.1e+06 M⁻¹ s⁻¹	B12
0.0011 nM	5.8e-06 s⁻¹	5.1e+06 M⁻¹ s⁻¹	B13
0.2 nM	0.00017 s⁻¹	850000 M⁻¹ s⁻¹	B4

Each binder was assayed against T3, cynomolgus TREM2-Fc in the same assay as above.
Method: as §2

Kd	koff	kon	Binder
0.0025 nM	1.2e-05 s⁻¹	4.8e+06 M⁻¹ s⁻¹	B8
0.0024 nM	8.9e-06 s⁻¹	3.8e+06 M⁻¹ s⁻¹	B11
0.0016 nM	7.8e-06 s⁻¹	4.8e+06 M⁻¹ s⁻¹	B12
0.002 nM	7.9e-06 s⁻¹	3.9e+06 M⁻¹ s⁻¹	B13
0.22 nM	0.00015 s⁻¹	680000 M⁻¹ s⁻¹	B4

The binders below were run against T4, soluble monomeric human TREM2 (human, UniProt Q9NZC2 19-174, limits assumed) (assay: SPR (Biacore T200), 37 C; IgG on anti-CH1 chip, soluble monomeric TREM2).
T4 construct: Not the same as shed sTREM2; also called soluble monomeric TREM2
T4 sequence: T2 sequence

Kd	koff	kon	Binder
0.12 nM	9.6e-05 s⁻¹	780000 M⁻¹ s⁻¹	B14
0.42 nM	0.00035 s⁻¹	840000 M⁻¹ s⁻¹	B2
